Laboratory results published in patent US20260355338 (published 2026).
Numbering of substitutions follows the chain as printed.

T1: human EpCAM-mFc (human)
T1 chain: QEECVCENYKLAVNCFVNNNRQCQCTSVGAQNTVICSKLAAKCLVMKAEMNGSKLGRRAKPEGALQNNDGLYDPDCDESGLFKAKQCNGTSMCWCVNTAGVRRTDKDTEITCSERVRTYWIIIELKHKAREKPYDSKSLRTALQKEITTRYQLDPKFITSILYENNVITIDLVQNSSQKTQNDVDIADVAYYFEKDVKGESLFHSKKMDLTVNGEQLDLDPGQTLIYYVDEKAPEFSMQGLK

B1: EP101-3014 (1565-Y) (antibody)
chain 1: QVQLVQSGAEVKKPGASVKVSCKASGYTFTNYYIHWVRQAPGQRLEYIGWIYPGNVYIQYNEKFKGRATLTADKSASTAYMELSSLRSEDTAVYYCARDGYWFAYWGQGTLVTVSS
chain 2: QGQSGQGSWCHSATDTILPCSNGGGSSGGAVGLLAPPGGLSGRSDNIGGSDIVLTQTPLSLSVTPGQPASISCRSSRSLLHSDGFTYLYWFLQKPGQSPQLLIYQTSNLASGVPDRFSSSGSGTDFTLKISRVEAEDVGVYYCAQNLELPNTFGQGTKLEIK
B2: EP01-3014 (1565-Y) (antibody)
chain 1: B1 chain 1
chain 2: QGQSGQGPLMTCSDYYTCKNNLGGGSSGGAVGLLAPPGGLSGRSDNIGGSDIVLTQTPLSLSVTPGQPASISCRSSRSLLHSDGFTYLYWFLQKPGQSPQLLIYQTSNLASGVPDRFSSSGSGTDFTLKISRVEAEDVGVYYCAQNLELPNTFGQGTKLEIK
B3: EP04-3014 (1565-Y) (antibody)
chain 1: B1 chain 1
chain 2: QGQSGQGWCPRLFDRPSMGCPTGGGSSGGAVGLLAPPGGLSGRSDNIGGSDIVLTQTPLSLSVTPGQPASISCRSSRSLLHSDGFTYLYWFLQKPGQSPQLLIYQTSNLASGVPDRFSSSGSGTDFTLKISRVEAEDVGVYYCAQNLELPNTFGQGTKLEIK
B4: EP02-3014 (1361-H) (antibody)
chain 1: B1 chain 1 with Y33H, Y101P
chain 2: QGQSGQGLSCTHSRYDMHCPHMGGGSSGGAVGLLAPPGGLSGRSDNIGGSDIVLTQTPLSLSVTPGQPASISCRSSRSLLHSDGFTYLYWFLQKPGQSPQLLIYQTSNLASGVPDRFSSSGSGTDFTLKISRVEAEDVGVYYCAQNLELPNTFGQGTKLEIK
B5: EP05-3014 (1361-H) (antibody)
chain 1: B1 chain 1 with Y33H, Y101P
chain 2: QGQSGQGWWPPCQGGAWCEQRIGGGSSGGAVGLLAPPGGLSGRSDNIGGSDIVLTQTPLSLSVTPGQPASISCRSSRSLLHSDGFTYLYWFLQKPGQSPQLLIYQTSNLASGVPDRFSSSGSGTDFTLKISRVEAEDVGVYYCAQNLELPNTFGQGTKLEIK
B6: EP107-1-3014 (1361-H) (antibody)
chain 1: B1 chain 1 with Y33H, Y101P
chain 2: QGQSGQGSRPCSYMHPYCFYNSGGGSSGGAVGLLAPPGGLSGRSDNIGGSDIVLTQTPLSLSVTPGQPASISCRSSRSLLHSDGFTYLYWFLQKPGQSPQLLIYQTSNLASGVPDRFSSSGSGTDFTLKISRVEAEDVGVYYCAQNLELPNTFGQGTKLEIK
B7: EP107-2-3014 (1361-H) (antibody)
chain 1: B1 chain 1 with Y33H, Y101P
chain 2: B6 chain 2 with R9H
B8: EP102-3014 (1565-Y) (antibody)
chain 1: B1 chain 1
chain 2: QGQSGQGSPACSDRYYQTCVLNGGGSSGGAVGLLAPPGGLSGRSDNIGGSDIVLTQTPLSLSVTPGQPASISCRSSRSLLHSDGFTYLYWFLQKPGQSPQLLIYQTSNLASGVPDRFSSSGSGTDFTLKISRVEAEDVGVYYCAQNLELPNTFGQGTKLEIK
B9: EP03-3014 (1361-H) (antibody)
chain 1: B1 chain 1 with Y33H, Y101P
chain 2: B1 chain 2 with S8H, W9Y, A13R, L18T, P19H, S21N, N22A
B10: EP104-3014 (1565-Y) (antibody)
chain 1: B1 chain 1
chain 2: QGQSGQGTTRCEHYWFTCPLSPGGGSSGGAVGLLAPPGGLSGRSDNIGGSDIVLTQTPLSLSVTPGQPASISCRSSRSLLHSDGFTYLYWFLQKPGQSPQLLIYQTSNLASGVPDRFSSSGSGTDFTLKISRVEAEDVGVYYCAQNLELPNTFGQGTKLEIK
B11: EP108-3014 (1361-H) (antibody)
chain 1: B1 chain 1 with Y33H, Y101P
chain 2: B6 chain 2 with S8L, R9T, P10R, S12T, Y13I, M14A, F19Y, S22Y
B12: EP105-3014 (1361-H) (antibody)
chain 1: B1 chain 1 with Y33H, Y101P
chain 2: QGQSGQGDCTGYSPSVLPACRVGGGSSGGAVGLLAPPGGLSGRSDNIGGSDIVLTQTPLSLSVTPGQPASISCRSSRSLLHSDGFTYLYWFLQKPGQSPQLLIYQTSNLASGVPDRFSSSGSGTDFTLKISRVEAEDVGVYYCAQNLELPNTFGQGTKLEIK
B13: EP03-3014 (1565-Y) (antibody)
chain 1: B1 chain 1
chain 2: B1 chain 2 with S8H, W9Y, A13R, L18T, P19H, S21N, N22A
B14: EP107-3-3014 (1361-H) (antibody)
chain 1: B1 chain 1 with Y33H, Y101P
chain 2: B6 chain 2 with R9L
B15: EP05-3014 (1565-Y) (antibody)
chain 1: B1 chain 1
chain 2: B5 chain 2
B16: EP106-3014 (1361-H) (antibody)
chain 1: B1 chain 1 with Y33H, Y101P
chain 2: B12 chain 2 with D8F, T10S, A19S, R21L, V22M
B17: EP109-3014 (1361-H) (antibody)
chain 1: B1 chain 1 with Y33H, Y101P
chain 2: QGQSGQGPNTCMSERRICSLTYGGGSSGGAVGLLAPPGGLSGRSDNIGGSDIVLTQTPLSLSVTPGQPASISCRSSRSLLHSDGFTYLYWFLQKPGQSPQLLIYQTSNLASGVPDRFSSSGSGTDFTLKISRVEAEDVGVYYCAQNLELPNTFGQGTKLEIK
B18: EP01-3014 (1361-H) (antibody)
chain 1: B1 chain 1 with Y33H, Y101P
chain 2: B2 chain 2
B19: EP11-3014 (1361-H) (antibody)
chain 1: B1 chain 1 with Y33H, Y101P
chain 2: QGQSGQGFICPTLYDRPHCMHTGGGSSGGAVGLLAPPGGLSGRSDNIGGSDIVLTQTPLSLSVTPGQPASISCRSSRSLLHSDGFTYLYWFLQKPGQSPQLLIYQTSNLASGVPDRFSSSGSGTDFTLKISRVEAEDVGVYYCAQNLELPNTFGQGTKLEIK
B20: EP11-3014 (1565-Y) (antibody)
chain 1: B1 chain 1
chain 2: B19 chain 2
B21: EP02-3014 (1565-Y) (antibody)
chain 1: B1 chain 1
chain 2: B4 chain 2
B22: EP110-3014 (1361-H) (antibody)
chain 1: B1 chain 1 with Y33H, Y101P
chain 2: QGQSGQGPRPHCAILRQCLAATGGGSSGGAVGLLAPPGGLSGRSDNIGGSDIVLTQTPLSLSVTPGQPASISCRSSRSLLHSDGFTYLYWFLQKPGQSPQLLIYQTSNLASGVPDRFSSSGSGTDFTLKISRVEAEDVGVYYCAQNLELPNTFGQGTKLEIK
B23: EP103-3014 (1565-Y) (antibody)
chain 1: B1 chain 1
chain 2: B4 chain 2 with L8M, T11V, H12V, S13D, Y15F, M17R, H18Q, M22L
B24: EP07-3014 (1361-H) (antibody)
chain 1: B1 chain 1 with Y33H, Y101P
chain 2: QGQSGQGHSGCPRLFDRCSAPAGGGSSGGAVGLLAPPGGLSGRSDNIGGSDIVLTQTPLSLSVTPGQPASISCRSSRSLLHSDGFTYLYWFLQKPGQSPQLLIYQTSNLASGVPDRFSSSGSGTDFTLKISRVEAEDVGVYYCAQNLELPNTFGQGTKLEIK

Biological target: T1, human EpCAM-mFc
Assay: ELISA

Compared with B1, B2 is 590-fold lower in Kd: 389 nM for the first, 0.66 nM for the second. The second binds more tightly here.

Compared with B3, B4 is 61-fold lower in Kd: 26.9 nM for the first, 0.44 nM for the second. The second binds more tightly here.

Going from B5 to B6, the Kd rises from 0.46 nM to 31 nM (67-fold).

Compared with B7, B8 is 1.6-fold higher in Kd: 44 nM for the first, 72.5 nM for the second. The first binds more tightly here.

Compared with B9, B10 is 32-fold higher in Kd: 4 nM for the first, 126 nM for the second. The first binds more tightly here.

First: B11
Second: B12
The Kd of the first is 3.5-fold lower: 58 nM for the first, 201 nM for the second. The first binds more tightly here.

B13 and B14 are within 1.5-fold of each other in Kd: 64.4 nM for the first, 44 nM for the second.

Going from B15 to B16, the Kd rises from 8.6 nM to 348 nM (40-fold). The first binds more tightly here.

Compared with B17, B18 is 28-fold lower in Kd: 512 nM for the first, 18.2 nM for the second.

B19 and B20 are within 1.5-fold of each other in Kd: 30.5 nM for the first, 38 nM for the second.

First: B21
Second: B22
The Kd of the first is 9.7-fold lower: 34.5 nM for the first, 336 nM for the second. The first binds more tightly here.

First: B23
Second: B24
The Kd of the first is 93-fold higher: 140 nM for the first, 1.5 nM for the second.
